Laboratory results published in PMC8683692.

Biological target: CM1021 (human) (UniProt P02768)
Assay: SDS-PAGE without and with reduction

Chain of CM1021 (P14210 whole entry, looked up, the tested form may be a part): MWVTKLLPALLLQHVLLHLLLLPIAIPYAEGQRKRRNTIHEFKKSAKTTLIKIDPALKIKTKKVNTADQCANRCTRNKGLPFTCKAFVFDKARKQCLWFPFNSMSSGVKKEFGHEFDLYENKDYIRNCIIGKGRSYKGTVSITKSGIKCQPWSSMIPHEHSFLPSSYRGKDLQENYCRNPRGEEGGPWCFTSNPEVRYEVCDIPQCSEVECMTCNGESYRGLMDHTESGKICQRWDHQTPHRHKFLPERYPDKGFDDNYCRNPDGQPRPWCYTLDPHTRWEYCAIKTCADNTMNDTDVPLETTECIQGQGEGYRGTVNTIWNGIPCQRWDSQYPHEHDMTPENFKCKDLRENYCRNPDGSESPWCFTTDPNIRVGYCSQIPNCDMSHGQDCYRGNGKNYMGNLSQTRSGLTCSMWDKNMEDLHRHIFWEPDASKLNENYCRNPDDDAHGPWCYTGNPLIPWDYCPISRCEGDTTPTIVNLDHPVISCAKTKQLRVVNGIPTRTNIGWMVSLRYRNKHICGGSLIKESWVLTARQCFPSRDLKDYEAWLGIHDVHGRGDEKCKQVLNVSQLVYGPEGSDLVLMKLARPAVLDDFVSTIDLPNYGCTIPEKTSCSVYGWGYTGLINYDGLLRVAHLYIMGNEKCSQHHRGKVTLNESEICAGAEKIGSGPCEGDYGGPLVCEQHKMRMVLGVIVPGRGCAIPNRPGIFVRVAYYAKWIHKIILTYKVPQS
Chain of CM1021 (P02768 whole entry, looked up, the tested form may be a part): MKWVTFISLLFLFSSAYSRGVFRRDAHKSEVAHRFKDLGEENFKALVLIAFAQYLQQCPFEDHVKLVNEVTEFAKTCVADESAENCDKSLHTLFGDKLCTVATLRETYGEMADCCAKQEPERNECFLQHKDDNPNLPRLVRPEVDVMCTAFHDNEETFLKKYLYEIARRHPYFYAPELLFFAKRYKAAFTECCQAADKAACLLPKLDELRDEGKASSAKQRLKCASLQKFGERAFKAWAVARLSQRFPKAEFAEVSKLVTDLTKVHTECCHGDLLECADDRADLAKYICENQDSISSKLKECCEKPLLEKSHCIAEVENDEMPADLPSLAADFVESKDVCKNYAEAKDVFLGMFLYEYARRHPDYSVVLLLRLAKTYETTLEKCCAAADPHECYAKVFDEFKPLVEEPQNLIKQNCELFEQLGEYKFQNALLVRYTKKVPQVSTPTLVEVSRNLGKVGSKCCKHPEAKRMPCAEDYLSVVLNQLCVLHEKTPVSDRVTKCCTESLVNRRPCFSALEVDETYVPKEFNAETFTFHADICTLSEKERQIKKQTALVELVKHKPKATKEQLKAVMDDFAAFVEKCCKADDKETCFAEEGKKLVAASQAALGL

Substance “CM1021 (from UniProt P02768 1-18; P14210 124-210) (Fc fusion)” has a stoichiometry N of 2.
